Source: patent publication US20250197525A1 (MINOTAUR THERAPEUTICS, published 2025)

Target: T1, IL2/15Rβ and γc receptor subunits (UniProt P31785 23-369, limits assumed)
T1 sequence 1: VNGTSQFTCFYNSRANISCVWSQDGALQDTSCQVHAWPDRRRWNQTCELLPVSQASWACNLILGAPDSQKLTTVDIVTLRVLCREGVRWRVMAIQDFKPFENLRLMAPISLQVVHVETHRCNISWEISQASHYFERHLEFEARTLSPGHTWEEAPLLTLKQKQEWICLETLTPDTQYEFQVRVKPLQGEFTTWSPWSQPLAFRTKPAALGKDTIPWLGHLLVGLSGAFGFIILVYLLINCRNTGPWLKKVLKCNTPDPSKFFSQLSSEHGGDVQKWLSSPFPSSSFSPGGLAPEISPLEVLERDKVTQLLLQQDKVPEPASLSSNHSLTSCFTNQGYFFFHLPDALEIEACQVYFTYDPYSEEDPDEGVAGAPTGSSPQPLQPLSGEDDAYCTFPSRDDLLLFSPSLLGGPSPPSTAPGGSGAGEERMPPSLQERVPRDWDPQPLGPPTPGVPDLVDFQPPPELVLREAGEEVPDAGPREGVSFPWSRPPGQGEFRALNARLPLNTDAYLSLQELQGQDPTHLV
T1 sequence 2: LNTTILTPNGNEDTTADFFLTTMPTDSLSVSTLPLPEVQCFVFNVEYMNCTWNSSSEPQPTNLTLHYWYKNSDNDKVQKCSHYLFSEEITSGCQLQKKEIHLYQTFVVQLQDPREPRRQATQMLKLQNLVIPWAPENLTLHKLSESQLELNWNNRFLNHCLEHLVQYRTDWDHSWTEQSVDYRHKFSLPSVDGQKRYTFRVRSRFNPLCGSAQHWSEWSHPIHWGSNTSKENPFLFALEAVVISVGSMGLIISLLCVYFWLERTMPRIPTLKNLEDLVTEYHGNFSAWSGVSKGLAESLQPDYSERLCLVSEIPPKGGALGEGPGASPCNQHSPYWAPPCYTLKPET
Experiment: cell-based or functional assay

B1: B15 Variant 1 (chimeric BLV1H12-IL-15 fusion antibody) (antibody, human IgG1, lambda, L234A L235A)
heavy: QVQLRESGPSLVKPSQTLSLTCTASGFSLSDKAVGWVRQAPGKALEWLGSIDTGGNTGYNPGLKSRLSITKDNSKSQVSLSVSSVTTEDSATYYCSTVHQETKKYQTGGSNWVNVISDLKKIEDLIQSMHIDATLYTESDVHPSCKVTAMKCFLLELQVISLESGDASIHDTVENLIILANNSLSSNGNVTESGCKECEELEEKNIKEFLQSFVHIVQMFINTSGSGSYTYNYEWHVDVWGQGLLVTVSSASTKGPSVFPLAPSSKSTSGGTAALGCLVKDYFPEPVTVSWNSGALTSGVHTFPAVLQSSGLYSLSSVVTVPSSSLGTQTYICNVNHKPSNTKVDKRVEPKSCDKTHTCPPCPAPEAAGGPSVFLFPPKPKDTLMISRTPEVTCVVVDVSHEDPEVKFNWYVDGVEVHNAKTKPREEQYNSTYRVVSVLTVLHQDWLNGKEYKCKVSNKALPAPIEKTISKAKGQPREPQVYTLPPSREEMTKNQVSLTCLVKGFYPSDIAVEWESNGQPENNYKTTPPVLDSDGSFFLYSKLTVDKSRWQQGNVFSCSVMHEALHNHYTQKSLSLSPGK
light: QAVLNQPSSVSGSLGQKVTISCSGSSSNIGNNYVSWYQQLPGTAPKLLIYGDTKRPSGIPDRFSGSKSGTSATLGITGLQTGDEADYYCASAEDSSSNAVFGSGTTLTVLGQPKAAPSVTLFPPSSEELQANKATLVCLISDFYPGAVTVAWKADSSPVKAGVETTTPSKQSNNKYAASSYLSLTPEQWKSHRSYSCQVTHEGSTVEKTVAPTECS
EC50 (nM), STAT5 inducible SEAP reporter in HEK-Blue IL2 reporter cells: 0.032 nM

B2: B15 Variant 3 (chimeric BLV1H12-IL-15 fusion antibody) (antibody, human IgG1, lambda, L234A L235A)
heavy: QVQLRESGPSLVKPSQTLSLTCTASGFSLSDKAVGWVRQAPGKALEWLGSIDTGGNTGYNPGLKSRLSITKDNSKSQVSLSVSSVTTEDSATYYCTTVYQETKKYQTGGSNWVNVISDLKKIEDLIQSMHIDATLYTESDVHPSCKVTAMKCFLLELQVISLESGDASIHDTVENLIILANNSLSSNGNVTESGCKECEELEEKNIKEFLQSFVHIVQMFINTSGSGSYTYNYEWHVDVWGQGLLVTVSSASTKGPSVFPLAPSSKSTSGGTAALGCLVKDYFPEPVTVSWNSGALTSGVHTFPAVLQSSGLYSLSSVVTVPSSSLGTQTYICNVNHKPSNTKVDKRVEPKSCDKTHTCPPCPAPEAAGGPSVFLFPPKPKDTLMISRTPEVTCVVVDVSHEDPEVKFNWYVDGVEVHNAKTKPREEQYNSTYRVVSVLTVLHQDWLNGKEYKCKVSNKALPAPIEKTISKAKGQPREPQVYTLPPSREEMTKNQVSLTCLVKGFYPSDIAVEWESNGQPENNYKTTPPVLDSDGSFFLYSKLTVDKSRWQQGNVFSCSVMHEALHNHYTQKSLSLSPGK
light: B1 light
EC50 (nM), STAT5 inducible SEAP reporter in HEK-Blue IL2 reporter cells: 0.026 nM
